Patent publication US20140212446A1

Target: CD64, high affinity human FcgammaRI receptor, expressed on K562 cells (K64 cells) (human)
Test: flow cytometry of K64 cells loaded with FITC-labelled IgG2a for 1 h at 4 C, quantified with Immuno-Brite beads

antibodies bound to each cell (antibodies bound to each cell): 2000 to 6000
Substance: IgG2a-FITC-labeled antibodies (antibody)
